Reference: IntAct's records for PubMed 23340509

B1: Protein Tob2 (Homo sapiens), Q14106 (parent)
chain: MQLEIKVALNFIISYLYNKLPRRRADLFGEELERLLKKKYEGHWYPEKPLKGSGFRCVHIGEMVDPVVELAAKRSGLAVEDVRANVPEELSVWIDPFEVSYQIGEKGAVKVLYLDDSEGCGAPELDKEIKSSFNPDAQVFVPIGSQDSSLSNSPSPSFGQSPSPTFIPRSAQPITFTTASFAATKFGSTKMKKGGGAASGGGVASSGAGGQQPPQQPRMARSPTNSLLKHKSLSLSMHSLNFITANPAPQSQLSPNAKEFVYNGGGSPSLFFDAADGQGSGTPGPFGGSGAGTCNSSSFDMAQVFGGGANSLFLEKTPFVEGLSYNLNTMQYPSQQFQPVVLAN

Variants of: B1
Conditions: with pabp1_human PABPC1, P11940
Chain of pabp1_human PABPC1, P11940 (P11940 whole entry): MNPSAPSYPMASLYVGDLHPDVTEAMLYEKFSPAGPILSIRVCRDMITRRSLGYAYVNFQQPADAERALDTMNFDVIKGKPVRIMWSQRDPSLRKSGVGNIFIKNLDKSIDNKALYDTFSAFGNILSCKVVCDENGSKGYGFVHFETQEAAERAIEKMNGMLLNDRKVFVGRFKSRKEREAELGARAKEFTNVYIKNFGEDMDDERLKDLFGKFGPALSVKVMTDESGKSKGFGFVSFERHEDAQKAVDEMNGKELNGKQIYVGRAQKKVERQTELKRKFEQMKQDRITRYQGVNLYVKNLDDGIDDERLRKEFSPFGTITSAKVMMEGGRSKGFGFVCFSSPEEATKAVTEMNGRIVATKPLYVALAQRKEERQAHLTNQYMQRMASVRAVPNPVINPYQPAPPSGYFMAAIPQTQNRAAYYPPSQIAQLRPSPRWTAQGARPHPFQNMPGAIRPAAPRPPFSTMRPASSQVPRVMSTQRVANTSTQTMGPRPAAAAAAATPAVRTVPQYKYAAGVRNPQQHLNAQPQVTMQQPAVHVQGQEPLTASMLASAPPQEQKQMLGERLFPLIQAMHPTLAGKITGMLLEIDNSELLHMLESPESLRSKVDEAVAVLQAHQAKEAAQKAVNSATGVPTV

effect of a mutation on the interaction	Variant
disrupting interaction	F140A;F260A
